Publication PMC3539332

Biological target: Arfrp1-His (UniProt Q13795)
Assay: liposome flotation; liposomes incubated with Arfrp1-His (1.5 μg) and 100 μM GDP or GTPγS, with or without 1 μg MBP-Vangl2 cytosolic domain, in HKM buffer at room temperature for 45 min, then 2 μg purified AP-1 for 1 hr; sucrose flotation; γ1-adaptin in the top fraction by immunoblot, normalised to lipid

Chain of UniProt Q13795 (Q13795 whole entry, the tested form may be a part): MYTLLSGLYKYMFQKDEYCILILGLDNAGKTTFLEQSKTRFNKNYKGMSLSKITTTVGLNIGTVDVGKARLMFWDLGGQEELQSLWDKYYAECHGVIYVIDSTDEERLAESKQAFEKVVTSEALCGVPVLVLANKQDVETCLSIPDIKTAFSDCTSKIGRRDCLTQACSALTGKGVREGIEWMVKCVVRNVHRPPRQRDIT

Substance: purified AP-1 complex (from UniProt Q2KJ81 1-423)
- fold change of membrane recruitment of AP-1 with both Vangl2 cytosolic domain and Arfrp1-GTPγS: 3 fold
